This assay has as its target elongation factor-2 (EF-2) (rabbit) (UniProt P55823). In words: cell-based or functional assay.

On to “DT382 (G53E): Null construct (from UniProt P00587 26-406) (enzyme)”, for which the inhibition of transcription/translation of T7-luc plasmid in IVTT was found to be 20%. “wild type DT382 (from UniProt P00587 26-406) (enzyme)” returned an inhibition of transcription/translation of T7-luc plasmid in IVTT of 90%.

(Values after patent US20160009768A1.)
